These results are taken from paper doi:10.1101/2025.04.12.648492 (bioRxiv, 2025).

The chains are these.
B1: NB-AGT-4, HA-tagged clone from the phage display vector (VHH)
VHH: QVQLVESGGGLVQSGGSLRLSCVASGGTFSTWSMGWFRQAPGKEREFVAVISWSGTIADYGDSVKGRFTISRDNAKNTVYLQMNSLKPEDTAVYYCAADPVGRVLYSDVGWQYWGQGTQVTVS
B2: NB-AGT-2, HA-tagged clone from the phage display vector (VHH)
VHH: QVQLVESGGGLVQAGGSLRLSCAASGRTFSSYAMGWFRQAPGKEREFVAAINWSGGSTFYADSVKGRFTISRDNAKNTVYLQMNSLKPEDTAVYYCAAARADPYYSISYYSTTHEYDYWGQGTQVTVS
B3: NB-AGT-3, HA-tagged clone from the phage display vector (VHH)
VHH: QVQLVESGGGLVQAGGSLILSCAASGFTFGHYAIGWFRQAPGKEREGVSCINSNDGSTYYADSVKGRFTISSDNAKNTVYLQMNSLKPEDTAVYYCAADYPPYYCSGYGWPSDGINYWGKGTQVTVS
B4: NB-AGT-6, HA-tagged clone from the phage display vector (VHH)
VHH: QVQLVESGGGSVQTGGSLRLACVASGFTSDHYSIGWFRQAPGKEREGVSCIGMHDGSTKYAESVKGRFTISSDNDKNTVYLQMNSLKPEDTAVYYCAAGPLVLLDSDTYQSWGEGTQVTVS
B5: NB-AGT-4 (VHH)
VHH: B1 VHH
B6: NB-AGT-2 (VHH)
VHH: B2 VHH
B7: NB-AGT-3 (VHH)
VHH: B3 VHH
B8: NB-AGT-6 (VHH)
VHH: B4 VHH

The target of one test is T1, alanine:glyoxylate aminotransferase 1, wild-type (major haplotype) (Homo sapiens, major haplotype, UniProt P21549). Put plainly: ELISA. In general terms: In an ELISA, binding on a coated surface is turned into a signal by an enzyme label.
T1 sequence (P21549 whole entry): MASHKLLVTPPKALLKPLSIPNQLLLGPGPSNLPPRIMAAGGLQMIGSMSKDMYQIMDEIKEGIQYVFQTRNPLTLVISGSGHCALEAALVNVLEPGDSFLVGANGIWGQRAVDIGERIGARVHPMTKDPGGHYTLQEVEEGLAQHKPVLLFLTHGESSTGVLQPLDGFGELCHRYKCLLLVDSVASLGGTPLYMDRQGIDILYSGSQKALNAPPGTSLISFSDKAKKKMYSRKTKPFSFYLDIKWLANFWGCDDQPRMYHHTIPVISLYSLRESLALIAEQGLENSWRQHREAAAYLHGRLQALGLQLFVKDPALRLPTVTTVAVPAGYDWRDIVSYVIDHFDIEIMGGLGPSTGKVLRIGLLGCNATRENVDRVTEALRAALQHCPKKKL
For the molecule B1, the binding result is listed as “binds”.

In the case of B2, the binding result is recorded as “binds”.

On to B3, for which the binding result was “binds”.

Consider B4, for which the binding result was “binds”.

A further test deals with T1, alanine:glyoxylate aminotransferase 1, …. As to the kind of experiment: SPR. A general note: SPR reads the build-up and loss of mass on a sensor chip optically.
With B5, the binding result was “binds”.

B6: the binding result was “binds”.

In the case of B7, the binding result is “binds”.

As for B8, the binding result is listed as “binds”.
